Literature values as cited in PMC2983480.

Target: Arp2/3 complex (Bos taurus) (UniProt A7MB62)

WASp VCA (from UniProt P42768)
Kd: 900 nM
